Source: patent US20230110085A1

Key:
[1] = target: purified human IgM (#16-16-090713-M, Athens Research & Technology) (human); assay: Western blot of DTT-reduced purified human IgM titrated 1250 to 4.8 ng/well
[2] = target: human IgG (IVIg, Gamunex) (human); assay: cell-based or functional assay
[3] = target: purified human IgM (#16-16-090713-M, Athens Research & Technology) (human); assay: cell-based or functional assay

“PE-conjugated donkey anti-human IgM (#IGM-PEC1, One Lambda) (antibody)” was tested. Which detection limit (lowest IgM amount with visible band) [1] did it give?
Its detection limit (lowest IgM amount with visible band) is 19 ng/well.

“imlifidase (IdeS), immunoglobulin G-degrading cysteine protease of S. pyogenes (enzyme)” was tested. Which cleavage on SDS-PAGE (full cleavage) [2] did it give?
Its cleavage on SDS-PAGE (full cleavage) is 2 µg/mL.

And the cleavage on SDS-PAGE (to scIgG) [2]?
The cleavage on SDS-PAGE (to scIgG) was 0.2 µg/mL.

What about the cleavage on SDS-PAGE [3] of the same substance?
Its cleavage on SDS-PAGE is greater than 200 µg/mL.

What about the digestion on SDS-PAGE gel [3] of the same substance?
The digestion on SDS-PAGE gel was greater than 200 µg/mL.
